Data taken from patent US20230041661A1 (Bicycle, published 2023).
Numbered stars: 1 amine (or outer) side, 2 acyl side, 3 side chain; on linkers, the order of the positions; unused ones are H or OH. Bridge positions count the residues as written; N and C are the ends. Ends that are not written are not given here. TAST = 1,4,7-tris(vinylsulfonyl)-1,4,7-triazonane scaffold, O=S(=O)(CC[*:1])N1CCN(S(=O)(=O)CC[*:2])CCN(S(=O)(=O)CC[*:3])CC1

Molecular target: T1, Human IL-17A (human, UniProt Q16552 24-155)
T1 construct: also called Interleukin-17; CTLA-8
T1 sequence (looked up): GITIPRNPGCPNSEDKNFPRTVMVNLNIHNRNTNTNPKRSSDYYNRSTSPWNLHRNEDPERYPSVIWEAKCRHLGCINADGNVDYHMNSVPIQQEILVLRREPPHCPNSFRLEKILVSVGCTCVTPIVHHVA
Test: fluorescence polarisation competition, 75 nM human IL-17A, 1 nM tracer BCY13196 as competitor, mean of n=3, Cheng Prusoff fit
Protocol: Affinity determination by fluorescence polarization (FP) competition. Bicycles were screened to determine affinity (Ki) in a fluorescence polarisation assay where in competition with a bicycle labelled with fluorescein (referred to as tracer) with a known affinity for IL-17A. Peptides were diluted to an appropriate concentration in assay buffer (PBS+0.01% Tween20, adjusted to pH7.4 using NaOH (1M)) with a maximum of 1% DMSO, then serially diluted 1 in 2 into assay buffer. Into black 384-well low volume plates, […] of diluted peptide was added to the plate followed by […] of IL-17A at a fixed concentration (75 nM IL-17A for tracer BCY13196, 50 nM IL-17A for tracer BCY13351), then […] tracer added to a final concentration of 1 nM. Measurements were conducted on a BMG PHERAstar FS equipped with an “FP 485 520 520” optic module which excites at 485 nm and detects parallel and perpendicular emission at 520 nm. The PHERAstar FS was set at 25° C. with 200 flashes per well and a positioning delay of 0.1 second, with each well measured at 5 to 10 minute intervals for 60 minutes. The gain used for measurements was determined at the point of experiment on a tracer alone well. […]
Selected peptide ligands of the invention were tested in the above mentioned IL-17A human fluorescence polarization (FP) competition assay and the results are shown in Table 1: […]

B1: BCY13059 (peptide)
peptide: ACPQDLELCTFLFGDCA
modifications: linker 2-9-16 via TAST
notes: Synthetic bicyclic peptide cyclised on TAST
Ki: 313 nM
